The PETadex activity labels (doi:10.1007/s00253-014-5672-0)

Assays:
[1] = Melting temperature [CD spectroscopy]; details: pH 8.5; part of the chain shown
pNPB = test: Proxy for plastic degradation [Residual activity]; details: pH 8, part of the chain shown

| Protein | Melting temperature [1] [°C] | Proxy for plastic degradation (pNPB; 25 °C) [%] | Proxy for plastic degradation (pNPB; 30.7 °C) [%] | Proxy for plastic degradation (pNPB; 40.2 °C) [%] | Proxy for plastic degradation (pNPB; 50.6 °C) [%] | Proxy for plastic degradation (pNPB; 54.9 °C) [%] | Proxy for plastic degradation (pNPB; 59.5 °C) [%] | Proxy for plastic degradation (pNPB; 65.6 °C) [%] | Proxy for plastic degradation (pNPB; 68.6 °C) [%] | Proxy for plastic degradation (pNPB; 74.8 °C) [%] | Proxy for plastic degradation (pNPB; 78.8 °C) [%] |
| --- | --- | --- | --- | --- | --- | --- | --- | --- | --- | --- | --- |
| unnamed (protein) ANPYERGPNPTDALLEARSGPFSVSEENVSRLSASGFGGGTIYYPRENNTYGAVAISPGYTGTEASIAWLGERIASHGFVVITIDTITTLDQPDSRAEQLNAALNHMINRASSTVRSRIDSSRLAVMGHSMGGGGSLRLASQRPDLKAAIPLTPWHLNKNWSSVTVPTLIIGADLDTIAPVATHAKPFYNSLPSSISKAYLELDGATHFAPNIPNKIIGKYSVAWLKRFVDNDTRYTQFLCPGPRDGLFGEVEEYRSTCPF | 70 |  |  |  |  |  |  |  |  |  |  |
| unnamed (protein) ANPYERGPNPTDALLEARSGPFSVSEENVSRLSASGFGGGTIYYPRENNTYGAVAISPGYTGTEASIAWLGERIASHGFVVITIDTITTLDQPDSRAEQLNAALNHMINRASSTVRSRIDSSRLAVMGHSMGGGGSLRLASQRPDLKAAIPLTPWHLNKNWSSVTVPTLIIGADLDTIAPVATHAKPFYNSLPSSISKAYLELDGATHFAPNIPNKIIGKYSVAWLKRFVDNDTRYTQFLCPGPRDGLFGEVEEYRSTCPFY |  | 100 | 110 | 95 | 115 | 85 | 65 | 2 | 1 | 0 | 0 |
